From the supplement of paper PMC9170038

Tested on: MS2 coat protein
Assay: apparent KD of MS2 coat protein; designed switch direction (-1 OFF switch, 1 ON switch): -1; higher = weaker reporter binding
Outline: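 The buffer was Tris-HCl pH 7.5 with KCl, MgCl2, BSA, DTT, tRNA and Tween-20. In it, SNAP-549-labelled MS2 coat protein was titrated in doubling steps from 0.7 or 1.5 nM to 3 µM over chip-bound RNA switches transcribed by stalled E. coli RNA polymerase on Illumina chips. Apparent KD is the per-design median over clusters of curve fits to normalised fluorescence.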

[1] = input ligand: microRNA oligo, concentration not stated
[2] = Eterna round: R95, input ligand: microRNA oligo, concentration not stated
[3] = Eterna round: R95, input ligand: FMN 200 uM
[4] = Eterna round: R95, input ligand: none

ACAUGAGGAUCACCCAUGUGAAAACAAUGGCUGACUUUGAGAUAGGAUAUAUGUGCAUAUCAAACAUAGAAGGGUCAUUACUGG [Deportation 90 - Jieux - Exclusion NG 3] (Eterna round: R96, puzzle: Exclusion NG 3)
apparent KD of MS2 coat protein (input ligand: FMN 200 uM): 41.4 nM | apparent KD of MS2 coat protein [1]: 25.9 nM | apparent KD of MS2 coat protein (input ligand: none): 47.2 nM

CAAUGACAUGAGGAUCACCCAUGUGAGGAUAUGGAGCGAGACCGCGCGGUCGCGUACACCAGAAGGCGCAGGCG [1st #66] (Eterna round: R97, puzzle: Exclusion 1)
apparent KD of MS2 coat protein (input ligand: FMN 200 uM): 89.3 nM | apparent KD of MS2 coat protein (input ligand: none): 37.9 nM

CUUCGUAUAGAGGAUAUAGGAUACUACGGUGUCCUAGAAGGCUGUACAUGAGGAUCACCCAUGUACUUCAGAUC [Exclusion 6 - B - 14:a] (puzzle: Exclusion 6)
apparent KD of MS2 coat protein [2]: 11.5 nM

CUUUUGUGAGGAUAUUAGUAGUAAAUAAAUAAAAUUAUUACUGAGAAGGCACAUGAGGAUCACCCAUGUUCCUU [Salish 062 v20] (Eterna round: R97, puzzle: Exclusion 4)
apparent KD of MS2 coat protein (input ligand: FMN 200 uM): 63.6 nM | apparent KD of MS2 coat protein (input ligand: none): 17 nM

AAUUUCGCGGCCCGAUGACUGCGUACUGACAGUGAGCUCACAUGAGGAUCACCCAUGUUUUUUGCUCGUAAAUCAGA [Quarat] (Eterna round: R96, puzzle: Sensor v2, turn-off variant 2)
apparent KD of MS2 coat protein (input ligand: FMN 200 uM): 13.6 nM | apparent KD of MS2 coat protein [1]: 12.3 nM | apparent KD of MS2 coat protein (input ligand: none): 16.1 nM

GCCUUAGGAGUCAGGAUAUACAAUAAAAUAAUUAAGUAGAAGGGACAUGAGGAUCACCCAUGUACAUUACAUUG [alecazam29] (Eterna round: R97, puzzle: Brourd's mod of Exclusion 4)
apparent KD of MS2 coat protein (input ligand: FMN 200 uM): 31 nM | apparent KD of MS2 coat protein (input ligand: none): 13.6 nM

CAUACAGUAGUUAGGAUAUUGCAACGUAUACGGAUCGAGAAGGGACAUGAGGAUCACCCAUGUAGAUUGUAAAG [EX-4 Malc #9] (puzzle: Brourd's mod of Exclusion 4)
apparent KD of MS2 coat protein [2]: 34 nM

AACCUACAUGAGGAUCACCCAUGUGAGGAUAUAUUGUUAUUUAUAUUAUUUUUUAGAGGUAGAAGGCGCGUGAU [JR_Exc1_Sub020] (Eterna round: R97, puzzle: Exclusion 1)
apparent KD of MS2 coat protein (input ligand: FMN 200 uM): 15.9 nM | apparent KD of MS2 coat protein (input ligand: none): 17.3 nM

CCACGACAUGAGGAUCACCCAUGUGAGGAUAUGGCCUGAAAAGCGUGAGCAGUUUGUAUCAGAAGGCGCGUGGG [salish99_ex1_r4_065] (Eterna round: R97, puzzle: Exclusion 1)
apparent KD of MS2 coat protein (input ligand: FMN 200 uM): 79.1 nM | apparent KD of MS2 coat protein (input ligand: none): 53.8 nM

GUUAUGCAGCAGGAUAUCGAUCCGCGGUAUGAUCGAGAAGGGCUGACAUGAGGAUCACCCAUGUGCGUCCUAGG [jl-ex6-4.46 ViennaUCT mod] (Eterna round: R97, puzzle: Exclusion 6)
apparent KD of MS2 coat protein (input ligand: FMN 200 uM): 170 nM | apparent KD of MS2 coat protein (input ligand: none): 36.6 nM

CUGCUCCGUGUAGGAUAUGCGCGCAACCAACGCGCAGAAGGACAUGAGGAUCACCCAUGUAUGUUAUUAUCACGUGAGGCGCAG [Design 33] (Eterna round: R96, puzzle: Exclusion NG 1)
apparent KD of MS2 coat protein (input ligand: FMN 200 uM): 28.9 nM | apparent KD of MS2 coat protein [1]: 13.2 nM | apparent KD of MS2 coat protein (input ligand: none): 16.6 nM

GGGUAGUGAGGAUAUACAUGAGGAUCACCCAUGUUUGCGACACUGGAGGCGUCUCUAUGUAGAAGGCGCGGCCG [EX3 B.16] (Eterna round: R97, puzzle: Exclusion 3)
apparent KD of MS2 coat protein (input ligand: FMN 200 uM): 30.4 nM | apparent KD of MS2 coat protein (input ligand: none): 18.9 nM

GCUAGGAGUGUGAGGAUAUGCUGAUCCUUGGAUCAGCAGAAGGCACAUGAGGAUCACCCAUGUGAAGACCUAGC [Mat - Exclusion 4 - JL Mod - D2] (Eterna round: R97, puzzle: Brourd's mod of Exclusion 4)
apparent KD of MS2 coat protein (input ligand: FMN 200 uM): 169 nM | apparent KD of MS2 coat protein (input ligand: none): 30 nM

UCCUCCUAAGGAUAUGCGUCGGUUGAACUAUGCUAAAAGGGACAUGAGGAUCACCCAUGUAGAAGGUAGGGCAG [Eternabot (L2) Solution 86] (Eterna round: R97, puzzle: Exclusion 2)
apparent KD of MS2 coat protein (input ligand: FMN 200 uM): 72.5 nM | apparent KD of MS2 coat protein (input ligand: none): 48.8 nM

CUCGCUGUAGGAUAUACAUAUGUCCUGUCAGCCGCGGCAGAACAUGAGGAUCACCCAUGUAGAAGGAUAGAGAG [Eternabot (Original) Solution 34] (Eterna round: R97, puzzle: Exclusion 2)
apparent KD of MS2 coat protein (input ligand: FMN 200 uM): 48.3 nM | apparent KD of MS2 coat protein (input ligand: none): 26.7 nM

CAGUACUGAGGAUAUACAUGAGGAUCACCCAUGUGUUCCAGCUAGGAGACUAGCAUAUGUAGAAGGCAGUACUG [jl-ex3-4.03 salish99 mod] (Eterna round: R97, puzzle: Exclusion 3)
apparent KD of MS2 coat protein (input ligand: FMN 200 uM): 338 nM | apparent KD of MS2 coat protein (input ligand: none): 326 nM

UUUUUCGAACAAGCAUCGAACAUGAGGAUCACCCAUGUAGGUAGAUUUGAGUAGGUAUGGAAGUAAGCUCGUCUUAU [JR_SV3TOV1_Sub080] (puzzle: Sensor v3, turn-off variant 1)
apparent KD of MS2 coat protein [3]: 39.4 nM | apparent KD of MS2 coat protein [2]: 107 nM | apparent KD of MS2 coat protein [4]: 53.9 nM

CACCGUAACAGAGGAUAUCAAACAUGAGGAUCACCCAUGUAAUAAAUGAGAAUUUCGAAUGUACCUGAGAAGGCUGAAACCGGC [Ostricism 83 - Jieux - Exclusion NG 2] (Eterna round: R96, puzzle: Exclusion NG 2)
apparent KD of MS2 coat protein [1]: 25.9 nM

AUCGUGUGAGGAUAUCGAUUAUGGAGGUCUAGGUCCAUACGCGAGAAGGCACAUGAGGAUCACCCAUGUAAUGG [jl-ex4-4.31 ViennaUCT mod] (Eterna round: R97, puzzle: Exclusion 4)
apparent KD of MS2 coat protein (input ligand: FMN 200 uM): 126 nM | apparent KD of MS2 coat protein (input ligand: none): 309 nM

CCAUGGGAGCGAGGAUAUAGACCAUGGGAAGAUCUAGAAGGCGCUGACAUGAGGAUCACCCAUGUGUUCAUGAGGAGGUGGACA (Eterna round: R96, puzzle: Exclusion NG 1)
apparent KD of MS2 coat protein (input ligand: FMN 200 uM): 73.7 nM | apparent KD of MS2 coat protein [1]: 74.4 nM | apparent KD of MS2 coat protein (input ligand: none): 47.1 nM

CUUUUGUGAGGAUAUUAGUAGUAAGUAAAUAAAAUUAUUACUAAGAAGGCACAUGAGGAUCACCCAUGUUCCUC [EX4 #81] (Eterna round: R97, puzzle: Exclusion 4)
apparent KD of MS2 coat protein (input ligand: FMN 200 uM): 108 nM | apparent KD of MS2 coat protein (input ligand: none): 58 nM

GCAGCUAAGUGUAAUAACACAAUACAUGAGGAUCACCCAUGUGAGGAUAUGGACUGGAUUACAGUCCAGAAGGCACAAUGCUGC [Zipper Style 4] (Eterna round: R96, puzzle: Exclusion NG 3)
apparent KD of MS2 coat protein (input ligand: FMN 200 uM): 17.2 nM | apparent KD of MS2 coat protein [1]: 16.2 nM | apparent KD of MS2 coat protein (input ligand: none): 20.9 nM

UGGGUACAUGAGGAUCACCCAUGUGAGGAUAUGCCGGAAGAAUCGCAGAAAUGAGCCAGUAGAAGGCACAAGGG [Eternabot (L2) Solution 100] (Eterna round: R97, puzzle: Exclusion 1)
apparent KD of MS2 coat protein (input ligand: FMN 200 uM): 1300 nM | apparent KD of MS2 coat protein (input ligand: none): 1190 nM

GGUCGGGCAAAGGAUGCCCACAUGAGGAUCACCCAUGUACAAGACUUUAAGGUGCGUAAGCGCAUACGGCUCGUUAA [Eternabot (L1) Solution 26] (Eterna round: R97, puzzle: Sensor, turn-off variant 1)
apparent KD of MS2 coat protein (input ligand: FMN 200 uM): 15.9 nM | apparent KD of MS2 coat protein (input ligand: none): 16.5 nM

AAAGAGCUAGGAUAUCGCGACCUUGACAUGAGGAUCACCCAUGUGCCCUCGUAACAACGACGAGAAGGAGCGAAAA [Gelaladied] (puzzle: Exclusion 5)
apparent KD of MS2 coat protein [3]: 36.2 nM | apparent KD of MS2 coat protein [2]: 16.8 nM | apparent KD of MS2 coat protein [4]: 19.9 nM
